Experimental data: patent US20050118646A1

Experiments:
[1] = molecular target: Neutravidin (UltraLink neutravidin beads, Pierce; neutravidin protein) (UniProt P02701); assay: Western blot (streptavidin-HRP) of sample and supernatant after binding to Neutravidin beads
[2] = molecular target: Neutravidin (UltraLink neutravidin beads, Pierce; neutravidin protein) (UniProt P02701); assay: ELIFA; binding of the biotinylated protein to Ultralink Neutravidin beads (through biotin)

Sequence of UniProt P02701 (P02701 25-152): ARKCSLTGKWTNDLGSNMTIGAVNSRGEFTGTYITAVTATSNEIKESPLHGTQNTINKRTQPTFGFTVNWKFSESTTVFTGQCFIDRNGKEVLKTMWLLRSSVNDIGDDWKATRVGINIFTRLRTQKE

E24-tagged CDKN1b (AviTag-TEV cleavage site-His6-PrC-CDKN1b), biotinylated (from UniProt P46527 1-198)
percent bound to the beads [1]: > 80% | Binding [%] [2]: 100%

E24-tagged Grb2 (AviTag-TEV cleavage site-His6-PrC-Grb2), biotinylated (from UniProt P62993 1-217)
percent bound to the beads [1]: > 80% | Binding [%] [2]: 100%

E24-tagged NAPA (AviTag-TEV cleavage site-His6-PrC-NAPA), biotinylated (from UniProt P54920 1-295)
percent bound to the beads [1]: > 80% | Binding [%] [2]: 100%

E25-tagged CDKN1b (AviTag-(G4S)2-TEV cleavage site-His6-PrC-CDKN1b), biotinylated (from UniProt P46527 1-198)
percent bound to the beads [1]: > 80% | Binding [%] [2]: 100%

E25-tagged Grb2 (AviTag-(G4S)2-TEV cleavage site-His6-PrC-Grb2), biotinylated (from UniProt P62993 1-217)
percent bound to the beads [1]: > 80% | Binding [%] [2]: 100%

E25-tagged NAPA (AviTag-(G4S)2-TEV cleavage site-His6-PrC-NAPA), biotinylated (from UniProt P54920 1-295)
percent bound to the beads [1]: > 80% | Binding [%] [2]: 100%
